This note sets out measurements from US20170183403A1 (UNIVERSIT T Z RICH, published 2017).

One experiment has as its target T1, Reference peptide no. 10.
T1 construct: hIL-2 15-mer, first library, on microarray; also called peptide 10
T1 peptide: INNYKNPKLTRMLTF
Nature of the experiment: peptide microarray (RepliTope). As for the experimental part: (§1) Additional incubations are with unrelated antibodies from the same isotype (mouse control IgG2a/lambda and mouse control IgG2a/kappa), and secondary antibodies (anti-mouse IgG (Thermo 84545, label DL650) or anti-mouse IgG (JIR 115-175-072, Label Cy5)) to assess unspecific binding due to the detection antibody. The experiments are performed essentially as described in Maksimov P, et al. 2012, PLoS One 7:e34212. doi:10.1371/journal. pone. 0034212.
(§2) The determination of peptide-antibody binding was performed by RepliTope-analysis where the peptide microarray (triplicate) was incubated with the primary antibody followed by a fluorescently labelled secondary antibody directed against the Fc-part of the primary one. All steps were performed on a TECAN microarray processing station enabling highly reliable and reproducible washing and incubation steps. After performing the incubation steps and subsequent to the final washing steps (to remove the unbound secondary antibodies) the microarrays were dried using a nitrogen stream and scanned in a high resolution microarray scanning system with appropriate wavelength settings. Control incubations were performed with an unrelated antibody having the same isotype to exclude false positive signals.
(§3) The resulting images were analyzed und quantified using spot-recognition software GenePix (Molecular Devices). For each spot, the mean signal intensity was extracted (between 0 and 65535 arbitrary units). For further data evaluation, the MMC2 values were determined. The MMC2 equals the mean value of all three instances on the microarray. Except the coefficient of variation (CV)—standard-deviation divided by the mean value—is larger 0.5, in this case the mean of the two closest values (MC2) is assigned to MMC2.

For a further experiment, the target named is T2, Reference peptide no. 13.
T2 construct: hIL-2 15-mer, first library, on microarray; also called peptide 13
T2 peptide: TRMLTFKFYMPKKAT
Description: peptide microarray (RepliTope). Here is the method:
as §1, §2, §3

In another experiment the target is T3, Reference peptide no. 26.
T3 construct: hIL-2 15-mer, first library, on microarray; also called peptide 26
T3 peptide: KNFHLRPRDLISNIN
Description: peptide microarray (RepliTope). As for the experimental part: as §1, §2, §3

Another experiment deals with T4, Reference peptide no. 12.
T4 construct: hIL-2 15-mer, first library, on microarray; also called peptide 12
T4 peptide: PKLTRMLTFKFYMPK
Nature of the experiment: peptide microarray (RepliTope). Here is the method:
as §1, §2, §3

The next experiment concerns the target T5, Reference peptide no. 23.
T5 construct: hIL-2 15-mer, first library, on microarray; also called peptide 23
T5 peptide: EEVLNLAQSKNFHLR
Nature of the experiment: peptide microarray (RepliTope). Here is the method: as §1, §2, §3

The next experiment addresses T6, Reference peptide no. 11.
T6 construct: hIL-2 15-mer, first library, on microarray; also called peptide 11
T6 peptide: YKNPKLTRMLTFKFY
Description: peptide microarray (RepliTope). Here is the method:
as §1, §2, §3

A further experiment addresses T7, Reference peptide no. 25.
T7 construct: hIL-2 15-mer, first library, on microarray; also called peptide 25
T7 peptide: AQSKNFHLRPRDLIS
Description: peptide microarray (RepliTope). Here is the method: as §1, §2, §3

The target in a further experiment is T8, murine IL-2 (mouse, UniProt P04351 21-169).
T8 construct: also called mouse IL-2; mIL-2
T8 sequence (looked up): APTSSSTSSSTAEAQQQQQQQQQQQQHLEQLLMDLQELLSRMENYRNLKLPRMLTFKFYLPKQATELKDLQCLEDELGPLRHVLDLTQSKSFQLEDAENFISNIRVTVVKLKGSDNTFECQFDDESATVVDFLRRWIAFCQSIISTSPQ
Description: SPR, NARA1 amine-coupled to a GLM chip, mouse IL-2 as analyte at 10, 3.3, 1.1, 0.37, 0.123 and 0.041 nM.

B1: NARA1 (antibody, mouse IgG2a, kappa, V domains shown)
VH: QVQLQQSGAELVRPGTSVKVSCKASGYAFTNYLIEWVKQRPGQGLEWIGVINPGSGGTNYNEKFKGKATLTADKSSSTAYMQLSSLTSDDSAVYFCARWRGDGYYAYFDVWGAGTTVTVSS
VL: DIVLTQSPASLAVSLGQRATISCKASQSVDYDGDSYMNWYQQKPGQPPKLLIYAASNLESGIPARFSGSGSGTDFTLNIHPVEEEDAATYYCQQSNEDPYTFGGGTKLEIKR
notes: Mouse monoclonal from hybridoma; Isotype controls used were mouse IgG2a; also called anti-IL2 (NARA1) antibody; monoclonal antibody NARA1
Take B1: the “signal intensity after subtraction of control signal” value was determined as 20900 AU in the experiment with Reference peptide no. 10; 224 AU with Reference peptide no. 13; 0 AU with Reference peptide no. 26; 1130 AU with Reference peptide no. 12; 32 AU with Reference peptide no. 23; 1190 AU in the experiment with Reference peptide no. 11. The “signal intensity after subtraction of control signal” value in the experiment with Reference peptide no. 25 was found to be 0 AU. Also, in the experiment with murine IL-2, the binding result is on record as “no binding (tested: 10 nM)”.
